EC50 (neutralisation, interpolated), EC90 (neutralisation, interpolated) and IC50 (neutralisation) data for one substance are collected here from KR20230010676A.

This experiment addresses SARS-CoV-2 스파이크 D19 (VSV 슈도바이러스) (SARS-CoV-2) (UniProt P0DTC2). Nature of the experiment: cell-based or functional assay.

The substance S2E12-LS (antibody) came in with an EC50 (neutralisation, interpolated) of 1.4 ng/mL; an EC90 (neutralisation, interpolated) of 11.9 ng/mL; an IC50 (neutralisation) of 1.4 ng/mL.
